The results in this text go back to paper PMC4631650 (Current biology : CB, 2015).

The data set concerns the molecule itself. Kind of data set: SEC.

B1: RECQ1-WT (full-length His-tagged human RECQ1) (enzyme, UniProt P46063 1-649, looked up)
chain: MASVSALTEELDSITSELHAVEIQIQELTERQQELIQKKKVLTKKIKQCLEDSDAGASNEYDSSPAAWNKEDFPWSGKVKDILQNVFKLEKFRPLQLETINVTMAGKEVFLVMPTGGGKSLCYQLPALCSDGFTLVICPLISLMEDQLMVLKQLGISATMLNASSSKEHVKWVHAEMVNKNSELKLIYVTPEKIAKSKMFMSRLEKAYEARRFTRIAVDEVHCCSQWGHDFRPDYKALGILKRQFPNASLIGLTATATNHVLTDAQKILCIEKCFTFTASFNRPNLYYEVRQKPSNTEDFIEDIVKLINGRYKGQSGIIYCFSQKDSEQVTVSLQNLGIHAGAYHANLEPEDKTTVHRKWSANEIQVVVATVAFGMGIDKPDVRFVIHHSMSKSMENYYQESGRAGRDDMKADCILYYGFGDIFRISSMVVMENVGQQKLYEMVSYCQNISKCRRVLMAQHFDEVWNSEACNKMCDNCCKDSAFERKNITEYCRDLIKILKQAEELNEKLTPLKLIDSWMGKGAAKLRVAGVVAPTLPREDLEKIIAHFLIQQYLKEDYSFTAYATISYLKIGPKANLLNNEAHAITMQVTKSTQNSFRAESSQTCHSEQGDKKMEEKNSGNFQKKAANMLQQSGSKNTGAKKRKIDDA
B1: the binding result was “binds”.

B2: RECQ1-W227A (full-length His-tagged human RECQ1 aromatic loop mutant) (enzyme, UniProt P46063 1-649, looked up)
chain: MASVSALTEELDSITSELHAVEIQIQELTERQQELIQKKKVLTKKIKQCLEDSDAGASNEYDSSPAAWNKEDFPWSGKVKDILQNVFKLEKFRPLQLETINVTMAGKEVFLVMPTGGGKSLCYQLPALCSDGFTLVICPLISLMEDQLMVLKQLGISATMLNASSSKEHVKWVHAEMVNKNSELKLIYVTPEKIAKSKMFMSRLEKAYEARRFTRIAVDEVHCCSQAGHDFRPDYKALGILKRQFPNASLIGLTATATNHVLTDAQKILCIEKCFTFTASFNRPNLYYEVRQKPSNTEDFIEDIVKLINGRYKGQSGIIYCFSQKDSEQVTVSLQNLGIHAGAYHANLEPEDKTTVHRKWSANEIQVVVATVAFGMGIDKPDVRFVIHHSMSKSMENYYQESGRAGRDDMKADCILYYGFGDIFRISSMVVMENVGQQKLYEMVSYCQNISKCRRVLMAQHFDEVWNSEACNKMCDNCCKDSAFERKNITEYCRDLIKILKQAEELNEKLTPLKLIDSWMGKGAAKLRVAGVVAPTLPREDLEKIIAHFLIQQYLKEDYSFTAYATISYLKIGPKANLLNNEAHAITMQVTKSTQNSFRAESSQTCHSEQGDKKMEEKNSGNFQKKAANMLQQSGSKNTGAKKRKIDDA
Take B2: the binding result was “binds”.

B3: RECQ1-F231A (full-length His-tagged human RECQ1 aromatic loop mutant) (enzyme, UniProt P46063 1-649, looked up)
chain: MASVSALTEELDSITSELHAVEIQIQELTERQQELIQKKKVLTKKIKQCLEDSDAGASNEYDSSPAAWNKEDFPWSGKVKDILQNVFKLEKFRPLQLETINVTMAGKEVFLVMPTGGGKSLCYQLPALCSDGFTLVICPLISLMEDQLMVLKQLGISATMLNASSSKEHVKWVHAEMVNKNSELKLIYVTPEKIAKSKMFMSRLEKAYEARRFTRIAVDEVHCCSQWGHDARPDYKALGILKRQFPNASLIGLTATATNHVLTDAQKILCIEKCFTFTASFNRPNLYYEVRQKPSNTEDFIEDIVKLINGRYKGQSGIIYCFSQKDSEQVTVSLQNLGIHAGAYHANLEPEDKTTVHRKWSANEIQVVVATVAFGMGIDKPDVRFVIHHSMSKSMENYYQESGRAGRDDMKADCILYYGFGDIFRISSMVVMENVGQQKLYEMVSYCQNISKCRRVLMAQHFDEVWNSEACNKMCDNCCKDSAFERKNITEYCRDLIKILKQAEELNEKLTPLKLIDSWMGKGAAKLRVAGVVAPTLPREDLEKIIAHFLIQQYLKEDYSFTAYATISYLKIGPKANLLNNEAHAITMQVTKSTQNSFRAESSQTCHSEQGDKKMEEKNSGNFQKKAANMLQQSGSKNTGAKKRKIDDA
In the case of B3, the binding result is recorded as “binds”.
